Laboratory results as given in patent US10801027B2, “Inhibitors of SRSF1 to treat neurodegenerative disorders” (University of Sheffield, priority 2016, dated 2020).

System: poly-Gly-Pro and poly-Gly-Ala DPRs
Assay: Western blot of RAN-translated DPRs in N2A cells
Type: cell-based, mouse
Conditions: G4C2×38 or C4G2×39 constructs, 72 h
Protocol: Neuro-2a (ATCC) cells were cultured in Dulbecco's Modified Eagle Medium (Sigma) supplemented with 10% fetal bovine serum [FBS] (Gibco), 5 U/ml Penstrep (Lonza) and 5 mM sodium pyruvate. Cells were maintained in a […] incubator with 5% CO2. 75,000 Neuro-2a cells were split into each well of 24-well plates and transfected for 72 h with 500 ng pcDNA6.2-GW/EmGFP-Control miR RNAi (ThermoFisher) or pcDNA6.2-GW/EmGFP-mouse SRSF1 miR1+2 RNAi and 200 ng pcDNA 3.1/RAN-G4C2×38-sense or RAN-C4G2×39-antisense using 3 μg PEI/1 μg DNA and one tenth medium volume OptiMEM (ThermoFisher).
HEK cells were transfected for 72 h with 650 ng pcDNA6.2-GW/EmGFP-Control miRNA, pCDNA6.2-GW/EmGFP-human SRSF1 miR1+2 RNAi or LV-EmGFP-human SRSF1 miR1+2 RNAi constructs and 50 ng p3×FLAG/human-SRSF1 using 3.5 μg PEI/ml media and one tenth medium volume of OptiMEM. Neuro-2a cells were split into each well of 24-well plates (75,000 cells/well) and transfected for 72 h with 350 ng pcDNA6.2-GW/EmGFP-Control miR RNAi (ThermoFisher), pcDNA6.2-GW/EmGFP-mouse SRSF1 miR1+2 RNAi, p3×FLAG, p3×FLAG/SRSF1 (11-196), p3×FLAG/SRSF1 (11-196)-m2 or p3×FLAG/SRSF1 (11-196)-m4 and 350 ng pcDNA 3.1/RAN-G4C2×38-sense or RAN-C4G2×39-antisense using 3 μg PEI/1 μg DNA and one tenth medium volume OptiMEM.
Proteins were extracted from HEK or Neuro-2a cells 72 hours after transfection. […] Protein extracts were quantified using Bradford Reagent (BioRAD), resolved by SDS-PAGE, electroblotted onto nitrocellulose membrane and probed using the relevant primary antibody. […] (kindly received from Prof Stuart Pickering Brown) primary antibodies were detected with horseradish peroxidase (HRP)-conjugated rabbit secondary antibody [1:5000 dilution] […] (kindly provided from Prof Dieter Edbauer) primary antibodies were detected using HRP-conjugated mouse secondary antibody [1:5000 dilution] […] For dot blot analysis, 50 μg total protein extracts prepared in ice-cold lysis buffer were loaded onto a nitrocellulose membrane using a microfiltration apparatus (Biorad) and analysed by western immunoblotting as previously described.

B1: SRSF1-m4: quadruple SRSF1 point mutant aa11-196, dominant negative, does not interact with TAP/NXF1 (protein)
chain: AGNNDCRIYVGNLPPDIRTKDIEDVFYKYGAIRDIDLKNRRGGPPFAFVEFEDPRDAEDAVYGRDGYDYDGYRLRVEFPASGAGTGRGGGGGGGGGAPRGRYGPPSAASENRVVVSGLPPSGSWQDLKDHMREAGDVCYADVYRDGTGVVEFVRKEDMTYAVRKLDNTKFRSHEGETAYIRVKVDG
modifications: left off: small tags and cut ends
effect on RAN translation / production of sense and antisense DPRs: marked reduction
